Laboratory results from patent US20150315275A1 (AstraZeneca / MedImmune, published 2015).
Values joined by “and” are separate entries in the source; they are usually repeats but may differ in a detail not shown here. Equal entries are not always repeated.

T1: human B7-H4 expressed on cells (human, UniProt Q7Z7D3 25-282)
T1 construct: the cell line is named under assay or readout; also called full length human B7-H4 on HEK293 cells; 293T.hB7-H4
T1 sequence: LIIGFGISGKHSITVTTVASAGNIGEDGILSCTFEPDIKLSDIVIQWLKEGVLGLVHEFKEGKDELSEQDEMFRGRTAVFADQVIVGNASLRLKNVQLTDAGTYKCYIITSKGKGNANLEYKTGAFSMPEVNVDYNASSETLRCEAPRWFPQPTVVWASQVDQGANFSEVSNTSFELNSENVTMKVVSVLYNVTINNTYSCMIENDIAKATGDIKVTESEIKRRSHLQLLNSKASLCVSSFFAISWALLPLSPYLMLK

T2: B7-H4ECD his-tagged protein (Sinobiologics) (human, UniProt Q7Z7D3 25-259)
T2 construct: Bought protein; Result paragraph calls the target human B7-H4; also called B7-H4 extracellular domain; not shown: his tag
T2 sequence: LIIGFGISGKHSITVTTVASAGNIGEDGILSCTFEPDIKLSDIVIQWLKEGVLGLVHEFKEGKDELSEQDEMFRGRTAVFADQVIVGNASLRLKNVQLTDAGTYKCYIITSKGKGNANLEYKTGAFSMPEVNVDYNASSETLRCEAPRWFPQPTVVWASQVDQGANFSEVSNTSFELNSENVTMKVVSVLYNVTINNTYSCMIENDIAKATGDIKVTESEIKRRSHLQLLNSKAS

T3: mouse B7-H4ECD mIgG2a Fc fusion protein (mouse, UniProt Q7TSP5 25-257, limits assumed)
T3 construct: also called mouse B7-H4-mIg fusion protein; Mouse B7-H4-mouse-Ig Fusion Protein; not shown: mouse IgG2a Fc
T3 sequence: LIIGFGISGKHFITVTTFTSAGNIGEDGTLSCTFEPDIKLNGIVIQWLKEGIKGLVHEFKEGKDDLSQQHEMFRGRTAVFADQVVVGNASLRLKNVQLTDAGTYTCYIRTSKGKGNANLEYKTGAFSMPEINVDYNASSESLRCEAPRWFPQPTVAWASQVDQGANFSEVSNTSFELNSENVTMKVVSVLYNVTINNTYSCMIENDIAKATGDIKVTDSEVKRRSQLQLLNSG


Legend:
[1] = molecular target: T1, human B7-H4 expressed on cells; assay: flow cytometry on HEK293.hB7-H4 transfectants, one-site specific binding fit
Procedure: For each staining, 0.2 million HEK293.hB7-H4 transfectants were resuspended in 100 μl flow cytometry buffer (PBS+2% FBS). A serial dilution of chimeric 6H3 and 14 humanized variants of 0, 0.1 ng, 0.3 ng, 1 ng, 3 ng, 10 ng, 30 ng, 100 ng, 300 ng, 1 μg, 3 μg and 10 μg were added to the cells and incubated at 4° C. for 30 min. Cells were then washed twice with 2 ml flow cytometry buffer, and resuspended in 100 μl flow cytometry buffer. 1 μl anti-hIg PE secondary antibody (Biolegend) was added and incubated with the cells for 15 mins Samples were then washed and resuspended in 100 μl flow cytometry buffer. Flow Cytometry data was acquired using BD Canto (BD Biosciences) in plate format and analyzed by FlowJo software. Staining data (MFI) was then input into Prism 5 software to generate binding curve. Curve-fit using one-site specific binding algorithm calculates individual KD for each variant.

[2] = molecular target: T2, B7-H4ECD his-tagged protein …; assay: ELISA, B7-H4ECD his-tagged protein coated
Procedure: 100 μl 1 μg/ml B7-H4ECD his-tagged protein (Sinobiologics) diluted in PBS was immobilized on flat bottom 96 well plate (Costar 9017) overnight at 4° C. Plates were washed twice with PBS+0.1% PS-20 and blocked with 200 μl/well PBS 10% FBS at RT for 1 hr. 100 μl chimeric 6H3 and 14 selected 6H3 humanized variants diluted in PBS 10% FBS were added to each well and incubated at RT for 1 hr. Plates were washed three times and 100 μl 1 μg/ml anti-human Ig HRP (Sigma) was added to each well and incubated at RT for 1 hr. Plates were washed six times and 100 μl TMB substrate (SurModics) was added to each well for 5-15 mins 100 μl stop solution (0.1M Sulfuric acid) was added to each well. Plates were read at Absorbance 450 nm by PerkinElmer EnVision 2104 Multilabel Reader.

[3] = molecular target: T3, mouse B7-H4ECD mIgG2a Fc fusion protein; assay: ELISA, mouse B7-H4ECD mIgG2a Fc fusion coated
Procedure: 100 μg/ml mouse B7-H4ECD mIgG2a Fc fusion protein diluted in PBS was immobilized on flat bottom 96 well plate (Costar 9017) overnight at 4° C. Plates were washed twice with PBS+0.1% PS-20 and blocked with 200 μl/well PBS 10% FBS at RT for 1 hr. 100 μl chimeric 6H3 and 14 selected 6H3 humanized variants diluted in PBS 10% FBS were added to each well and incubated at RT for 1 hr. Plates were washed three times and 100 μl 1 μg/ml anti-human Ig HRP (Sigma) was added to each well and incubated at RT for 1 hr. Plates were washed six times and 100 μl TMB substrate (SurModics) was added to each well for 5-15 mins 100 μl stop solution (0.1M Sulfuric acid) was added to each well. Plates were read at Absorbance 450 nm by PerkinElmer EnVision 2104 Multilabel Reader.

B7-H4-Ig fusion protein [4] = molecular target: T4, B7-H4-Ig fusion protein (human); assay: competition ELISA on B7-H4-Ig-coated plate, Plate 1; competitor biotinylated mouse 6H3 (5 ng/ml)
T4 construct: also called human B7-H4 Ig
Procedure: (§1) A 12-point, 3-fold dilution series of 14 humanized 6H3 antibody variants was prepared ranging from 100 μg/ml to 0.5 ng/ml. Dilutions were prepared in assay diluent containing biotinylated mouse anti-human B7-H4 6H3 (SEQ ID NOS:3 and 5 for light chain variable region and heavy chain variable region respectively) at 5 ng/ml. Antibodies were allowed to bind to B7-H4-Ig-coated assay plates (200 ng/well) for 1 hour at room temperature and detected with streptavidin HRP.

[5] = molecular target: T1, human B7-H4 expressed on cells; assay: saturation binding, flow cytometry on 624mel/B7-H4 cells, biotinylated mAb, azide-treated cells; unit not given
Procedure: A saturation binding experiment was carried out on 624mel/B7-H4 cells using the chimeric 6H3 mAb and humanized variants of 6H3. Briefly, 50,000 cells were pretreated with 0.1% azide on ice for 30 minutes to inhibit B7-H4 internalization then stained for 30 minutes with biotinylated anti-B7-H4 mAbs. The mAbs were diluted in a 12-point, 3-fold dilution series ranging from 200 μg/ml down to 1 ng/ml. Cell were stained with streptavidin PE for 10 minutes, washed, fixed and analyzed by flow cytometry.
FIGS. 35A-35B are binding curves for the raw (FIG. 35A) and background subtracted data (FIG. 35B). […] The subtracted values were used to determine the Kd and Bmax. The antibodies appear to fall into two groups based on Kd values (Table 10).

B7-H4-Ig fusion protein [6] = molecular target: T4, B7-H4-Ig fusion protein; assay: competition ELISA on B7-H4-Ig-coated plate, Plate 2; competitor biotinylated mouse 6H3 (5 ng/ml)
Procedure: as §1

Row | Binder | Bmax(MFI) [1] [MFI] | Kd [1] [nM] | EC50 [2] [nM] | EC50 [3] [nM] | EC50 (B7-H4-Ig fusion protein [4]) | Bmax [5] | EC50 (B7-H4-Ig fusion protein [6])
1 | humanized 6H3 variant 4 (antibody, V domains shown, also called V4; Variant 4 (antibody)) VH: EVQLVQSGAEMKKPGASVKVSCKASGYTFTDYYMNWVRQAPGQSLEWIGVINPYNGDTTYNQKFQGRVTVTVDKSATTAYMELSSLRSEDTAVYYCARYPESTYWGQGTLVTVSS VL: DVVMTQSPLSLPVTLGQPASISCRSSQSLVHINGNTYLHWYQQRPGQSPRVLIYKVSNRFSGVPDRFSGSGSGTDFTLKISRVEAEDVGVYFCSQSTHVPLTFGGGTKVEIK | 580 | 5.2 | 1.16 | 0.08 | 2.95 µg/mL and 19.7 nM |  | 
2 | humanized 6H3 variant 8 (antibody, V domains shown, also called V8; H1A L2B) VH: QVQLVQSGAEVKKPGASVKVSCKASGYTFTDYYMHWVRQAPGQGLEWMGIINPYNGDTSYAQKFQGRVTMTRDTSTSTVYMELSSLRSEDTAVYYCARYPESTYWGQGTLVTVSS VL: DIVMTQTPLSLPVTLGQPASISCRSSQSLVHINGNTYLHWYQQRPGQSPRVLIYKVSNRFSGVPDRFSGSGSGTDFTLKISRVEAEDVGVYFCSQSTHVPLTFGQGTKVEIK |  |  |  | 0.06 |  |  | 
3 | humanized 6H3 variant 1 (antibody, V domains shown, also called V1; H1A L1B) VH: QVQLVQSGAEVKKPGASVKVSCKASGYTFTDYYMHWVRQAPGQGLEWMGIINPYNGDTSYAQKFQGRVTMTRDTSTSTVYMELSSLRSEDTAVYYCARYPESTYWGQGTLVTVSS VL: DVVMTQSPLSLPVTLGQPASISCRSSQSLVHINGNTYLHWYQQRPGQSPRVLIYKVSNRFSGVPDRFSGSGSGTDFTLKISRVEAEDVGVYFCSQSTHVPLTFGGGTKVEIK |  |  |  | 0.1 |  |  | 
4 | humanized 6H3 variant 7 (antibody, V domains shown, also called V7; 6H3 V7) VH: EVQLVQSGAEMKKPGASVKVSCKASGYTFTDYYMNWVRQAPGQSLEWIGVINPYNGDTTYNQKFQGRVTVTVDKSATTAYMELSSLRSEDTAVYYCARYPESTYWGQGTLVTVSS VL: DVVMTQSPLSLPVTLGQPASISCRSSQSLVHINGNTYLHWYLQRPGQSPKVLIYKVSNRFSGVPDRFSGSGSGTDFTLKISRVEAEDVGVYFCSQSTHVPLTFGGGTKVEIK | 513 | 6.5 | 1.07 | 0.11 | 2.63 µg/mL and 17.5 nM | 6080 | 
5 | humanized 6H3 variant 5 (antibody, V domains shown, also called V5; Variant 5 (antibody)) VH: EVQLVQSGAEVKKPGASVKVSCKASGYTFTDYYMNWVRQAPGQGLEWIGIINPYNGDTSYNQKFKGRVTLTVDKSTSTAYMELSSLRSEDTAVYYCARYPESTYWGQGTLVTVSS VL: DVVMTQSPLSLPVTLGQPASISCRSSQSLVHINGNTYLHWYLQRPGQSPKVLIYKVSNRFSGVPDRFSGSGSGTDFTLKISRVEAEDVGVYFCSQSTHVPLTFGGGTKVEIK | 646 | 4.2 | 0.95 | 0.05 | 3.62 µg/mL and 24.2 nM |  | 

Continued by falling EC50 [3], values first:

Row | Bmax(MFI) [1] [MFI] | Kd [1] [nM] | EC50 [2] [nM] | EC50 [3] [nM] | EC50 (B7-H4-Ig fusion protein [4]) | Bmax [5] | EC50 (B7-H4-Ig fusion protein [6]) | Binder
6 | 526 | 5 | 1.64 | 0.13 | 2.53 µg/mL and 16.9 nM | 6420 |  | humanized 6H3 variant 6 (antibody, V domains shown, also called V6; Variant 6 (antibody)) VH: EVQLVQSGAEMKKPGASVKVSCKASGYTFTDYYMNWVRQAPGQSLEWMGVINPYNGDTTYNQKFQGRVTVAVDKSATTAYMELSSLRSEDTAVYYCARYPESTYWGQGTLVTVSS VL: DVVMTQSPLSLPVTLGQPASISCRSSQSLVHINGNTYLHWYLQRPGQSPKVLIYKVSNRFSGVPDRFSGSGSGTDFTLKISRVEAEDVGVYFCSQSTHVPLTFGGGTKVEIK
7 | 662 | 5.5 | 0.89 | 0.13 |  |  | 2.13 µg/mL and 14.2 nM | humanized 6H3 variant 10 (antibody, V domains shown, also called V10; H2B L2B) VH: EVQLVQSGAEMKKPGASVKVSCKASGYTFTDYYMNWVRQAPGQSLEWMGVINPYNGDTTYNQKFQGRVTVAVDKSATTAYMELSSLRSEDTAVYYCARYPESTYWGQGTLVTVSS VL: DIVMTQTPLSLPVTLGQPASISCRSSQSLVHINGNTYLHWYQQRPGQSPRVLIYKVSNRFSGVPDRFSGSGSGTDFTLKISRVEAEDVGVYFCSQSTHVPLTFGQGTKVEIK
8 | 648 | 6.9 | 0.97 | 0.11 |  |  | 2.2 µg/mL and 14.7 nM | humanized 6H3 variant 11 (antibody, V domains shown, also called V11; H2C L2B) VH: EVQLVQSGAEMKKPGASVKVSCKASGYTFTDYYMNWVRQAPGQSLEWIGVINPYNGDTTYNQKFQGRVTVTVDKSATTAYMELSSLRSEDTAVYYCARYPESTYWGQGTLVTVSS VL: DIVMTQTPLSLPVTLGQPASISCRSSQSLVHINGNTYLHWYQQRPGQSPRVLIYKVSNRFSGVPDRFSGSGSGTDFTLKISRVEAEDVGVYFCSQSTHVPLTFGQGTKVEIK
9 | 583 | 6 | 1.19 | 0.1 | 3.09 µg/mL and 20.6 nM |  |  | humanized 6H3 variant 3 (antibody, V domains shown, also called V3; H2B L1B) VH: EVQLVQSGAEMKKPGASVKVSCKASGYTFTDYYMNWVRQAPGQSLEWMGVINPYNGDTTYNQKFQGRVTVAVDKSATTAYMELSSLRSEDTAVYYCARYPESTYWGQGTLVTVSS VL: DVVMTQSPLSLPVTLGQPASISCRSSQSLVHINGNTYLHWYQQRPGQSPRVLIYKVSNRFSGVPDRFSGSGSGTDFTLKISRVEAEDVGVYFCSQSTHVPLTFGGGTKVEIK
10 | 603 | 2.4 | 0.51 | 0.08 | 2.46 µg/mL and 16.4 nM | 4650 |  | humanized 6H3 variant 2 (antibody, V domains shown, also called V2; 6H3 V2) VH: EVQLVQSGAEVKKPGASVKVSCKASGYTFTDYYMNWVRQAPGQGLEWIGIINPYNGDTSYNQKFKGRVTLTVDKSTSTAYMELSSLRSEDTAVYYCARYPESTYWGQGTLVTVSS VL: DVVMTQSPLSLPVTLGQPASISCRSSQSLVHINGNTYLHWYQQRPGQSPRVLIYKVSNRFSGVPDRFSGSGSGTDFTLKISRVEAEDVGVYFCSQSTHVPLTFGGGTKVEIK
